Data on 4 substances can be found in PMC13399123.

The target of test [1] is cortactin (CTTN), endogenous in MKN-74 cells (UniProt Q14247). Description: GFP-trap pull-down from cell lysates, anti-cortactin immunoblot, quantified. The following applies: MKN-74 HS1BP3 KO cells expressing EGFP-HS1BP3 WT or PRR3.1 mutant; n = 4; parent: est. 1.0; read off a plot.
The target in test [2] is GST-SH3 (SH3 domain of cortactin fused to GST) (UniProt Q14247). Description: GST pull-down from cell lysates, anti-HS1BP3 immunoblot, quantified. Conditions: lysates of MKN-74 HS1BP3 KO cells rescued with EGFP-HS1BP3 WT or PRR3.1 mutant; n = 2; parent: est. 8.5; read off a plot; scale: % of GST-SH3 interaction. For orientation: A western blot detects proteins with antibodies after separation by electrophoresis.

The target is the same in test [3]. Description: GST pull-down with recombinant proteins, anti-MBP immunoblot, quantified. Conditions: 10% of the input MBP protein loaded; n = 2; parent: est. 1.0; read off a plot.

Sequence of GST-SH3 (SH3 domain of cortactin fused to GST) (Q14247 492-550): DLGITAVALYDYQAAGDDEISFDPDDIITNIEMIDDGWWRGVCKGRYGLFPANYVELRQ
Sequence of EGFP-HS1BP3 WT (Q53T59 whole entry, change not shown): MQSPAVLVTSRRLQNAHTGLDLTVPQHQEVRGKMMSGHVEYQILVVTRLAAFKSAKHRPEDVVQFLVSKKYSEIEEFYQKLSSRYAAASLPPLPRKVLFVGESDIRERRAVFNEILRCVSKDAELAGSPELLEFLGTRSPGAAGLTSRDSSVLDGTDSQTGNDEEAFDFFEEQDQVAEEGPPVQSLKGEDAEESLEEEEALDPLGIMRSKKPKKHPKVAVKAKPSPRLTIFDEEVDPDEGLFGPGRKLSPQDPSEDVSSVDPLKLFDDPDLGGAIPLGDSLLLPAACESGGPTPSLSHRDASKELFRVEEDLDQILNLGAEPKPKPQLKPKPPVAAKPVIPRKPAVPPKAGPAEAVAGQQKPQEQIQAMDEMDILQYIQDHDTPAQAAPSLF
Sequence of full-length MBP-HS1BP3 (from UniProt Q53T59) PRR3.1 mut (prolines of PRR3.1 replaced with alanine) (Q53T59 whole entry, change not shown): as above
Sequence of full-length MBP-HS1BP3 (from UniProt Q53T59) PRR3.1+3.2 mut (prolines of PRR3.1 and PRR3.2 replaced with alanine) (Q53T59 whole entry, change not shown): as above
Sequence of full-length MBP-HS1BP3 (from UniProt Q53T59) PRR3.2 mut (prolines of PRR3.2 replaced with alanine) (Q53T59 whole entry, change not shown): as above
Sequence of cortactin (CTTN), endogenous in MKN-74 cells (Q14247 whole entry, the tested form may be a part): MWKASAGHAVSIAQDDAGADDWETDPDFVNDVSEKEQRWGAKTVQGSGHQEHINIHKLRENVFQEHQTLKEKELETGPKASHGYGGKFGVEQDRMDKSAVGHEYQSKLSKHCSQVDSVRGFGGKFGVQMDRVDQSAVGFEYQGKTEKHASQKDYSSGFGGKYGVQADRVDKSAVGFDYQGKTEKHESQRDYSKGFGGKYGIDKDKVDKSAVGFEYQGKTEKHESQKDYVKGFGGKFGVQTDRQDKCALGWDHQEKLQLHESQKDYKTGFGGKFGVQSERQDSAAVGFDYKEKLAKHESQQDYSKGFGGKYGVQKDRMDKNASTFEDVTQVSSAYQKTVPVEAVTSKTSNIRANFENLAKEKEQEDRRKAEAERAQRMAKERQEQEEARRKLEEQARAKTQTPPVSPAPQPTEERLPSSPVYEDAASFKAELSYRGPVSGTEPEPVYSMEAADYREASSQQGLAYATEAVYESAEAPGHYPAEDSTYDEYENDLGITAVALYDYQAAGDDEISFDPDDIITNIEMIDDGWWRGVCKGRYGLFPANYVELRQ

Take “EGFP-HS1BP3 WT (from UniProt Q53T59) PRR3.1 mut (prolines of PRR3.1 replaced with alanine)”: the ratio to parent in test [1] was 0.82. Moreover, the response in test [2] came to 0.3.

For the substance “full-length MBP-HS1BP3 (from UniProt Q53T59) PRR3.1 mut (prolines of PRR3.1 replaced with alanine)”, the ratio to parent in test [3] amounted to 0.07.

For “full-length MBP-HS1BP3 (from UniProt Q53T59) PRR3.1+3.2 mut (prolines of PRR3.1 and PRR3.2 replaced with alanine)”, the ratio to parent in test [3] is 0.51.

For “full-length MBP-HS1BP3 (from UniProt Q53T59) PRR3.2 mut (prolines of PRR3.2 replaced with alanine)”, the ratio to parent in test [3] was 0.31.
